{
  "source": "patent US20250188154A1",
  "key": {"[1]": {"biological_target": "SARS-CoV-2 spike on live virus (Isolate USA-WA1/2020) (SARS-CoV-2) (UniProt P0DTC2)", "assay": "cell-based or functional assay"}, "[2]": {"biological_target": "SARS-CoV-2 Spike-2P stabilized S ectodomain trimer (SARS-CoV-2) (UniProt P0DTC2)", "assay": "ACE2 blocking, ELISA-based assay (Genscript)"}, "[3]": {"biological_target": "SARS-CoV-2 Spike-2P stabilized S ectodomain trimer (SARS-CoV-2) (UniProt P0DTC2)"}, "[4]": {"biological_target": "SARS-CoV-2 B.1.351 live virus spike (SARS-CoV-2) (UniProt P0DTC2)", "assay": "cell-based or functional assay"}, "[5]": {"biological_target": "SARS-CoV-2 B.1.1.7 live virus spike (SARS-CoV-2) (UniProt P0DTC2)", "assay": "cell-based or functional assay"}, "[6]": {"biological_target": "SARS-CoV-2 2AA MA virus spike (SARS-CoV-2) (UniProt P0DTC2)", "assay": "cell-based or functional assay"}},
  "note": "Read-outs that look alike come from different tables or passages of the source.",
  "data": [
    {"substance": "DH1042 (antibody)", "values": [
      {"measurement": "Bioqual PRNT IC50", "setting": "[1]", "result": 0.156, "unit": "µg/mL"},
      {"measurement": "Bioqual PRNT IC90", "setting": "[1]", "result": 0.625, "unit": "µg/mL"},
      {"measurement": "Duke RBL PRNT IC50", "setting": "[1]", "result": 0.073, "unit": "µg/mL"},
      {"measurement": "Duke RBL PRNT IC90", "setting": "[1]", "result": 0.625, "unit": "µg/mL"},
      {"measurement": "SARS-CoV-2 neutralization IC50", "setting": "[1]", "result": 0.071, "unit": "µg/mL"},
      {"measurement": "SARS-CoV-2 neutralization IC80", "setting": "[1]", "result": 0.269, "unit": "µg/mL"},
      {"measurement": "SARS-CoV-2 neutralization IC90", "setting": "[1]", "result": 0.578, "unit": "µg/mL"},
      {"measurement": "SARS-CoV-2 neutralization Minimal Effective conc.", "setting": "[1]", "result": 0.28, "unit": "µg/mL"},
      {"measurement": "IC50", "setting": "[2]", "result": "< 0.2", "unit": "µg/mL"},
      {"measurement": "IC50", "setting": "[3]", "result": "< 0.2", "unit": "µg/mL"},
      {"measurement": "IC80", "setting": "[3]", "result": 0.371, "unit": "µg/mL"}
    ]},
    {"substance": "DH1047 (antibody)", "values": [
      {"measurement": "live virus neutralization IC50", "setting": "[4]", "result": 0.111, "unit": "µg/mL"},
      {"measurement": "SARS-CoV-2 neutralization IC50", "setting": "[1]", "result": 0.124, "unit": "µg/mL"},
      {"measurement": "SARS-CoV-2 neutralization IC80", "setting": "[1]", "result": 0.666, "unit": "µg/mL"},
      {"measurement": "SARS-CoV-2 neutralization IC90", "setting": "[1]", "result": 1.77, "unit": "µg/mL"},
      {"measurement": "SARS-CoV-2 neutralization Minimal Effective conc.", "setting": "[1]", "result": 1.1, "unit": "µg/mL"},
      {"measurement": "live virus neutralization IC50", "setting": "[5]", "result": 0.081, "unit": "µg/mL"},
      {"measurement": "live virus neutralization IC50", "setting": "[6]", "result": 0.397, "unit": "µg/mL"},
      {"measurement": "IC50", "setting": "[3]", "result": 0.078, "unit": "µg/mL"},
      {"measurement": "IC80", "setting": "[3]", "result": 0.567, "unit": "µg/mL"}
    ]}
  ]
}
